Binding result and MFI data for 1 molecule are collected here from US20240294650A1 (Alector, published 2024).

Test [1] deals with T1, recombinant murine MerTK extracellular domain (mouse, UniProt Q60805 19-497).
T1 construct: also called Mouse MerTK; murine MerTK ECD; not shown: polyHis or TEVS/Thrombin/murine IgG2a-Fc tag
T1 sequence: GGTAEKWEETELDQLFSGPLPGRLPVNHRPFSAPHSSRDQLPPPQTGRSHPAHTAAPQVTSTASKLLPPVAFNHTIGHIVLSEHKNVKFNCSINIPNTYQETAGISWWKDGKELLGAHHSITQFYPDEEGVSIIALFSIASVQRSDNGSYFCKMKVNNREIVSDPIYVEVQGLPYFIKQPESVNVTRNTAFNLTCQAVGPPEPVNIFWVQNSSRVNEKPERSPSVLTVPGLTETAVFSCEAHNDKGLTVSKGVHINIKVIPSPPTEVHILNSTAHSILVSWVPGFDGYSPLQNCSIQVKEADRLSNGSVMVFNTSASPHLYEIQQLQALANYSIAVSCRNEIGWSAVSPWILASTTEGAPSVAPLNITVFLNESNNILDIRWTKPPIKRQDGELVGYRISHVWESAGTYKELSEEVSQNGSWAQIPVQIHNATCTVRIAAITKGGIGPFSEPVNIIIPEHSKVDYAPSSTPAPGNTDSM
Briefly: SPR Carterra LSA, Ab immobilised. The protocol:
Binding kinetics of anti-MerTK IgG1 antibodies of the present disclosure to human, cyno, and murine MerTK were evaluated using a Carterra LSA instrument (Carterra, Salt Lake City, UT). […] A HC200M sensor chip (Carterra) was activated using the single channel flow cell with a 7-minute injection of a 1:1:1 mixture of 100 mM MES pH 5.5, 100 mM sulfo-NHS, 400 mM EDC (all reconstituted in MES pH 5.5; 100 μl of each mixed in vial immediately before running assay). After switching to the multi-channel array flow cell, the antibodies were injected over the activated chip in three 96-spot arrays for 10 minutes each. The remaining unconjugated active groups on the chip were then blocked by injecting 1M Ethanolamine pH 8.5 (Carterra) for 7 minutes using the single channel flow cell. The resulting sensor chip contained three spots for each antibody, at three different densities. Two independent experiments were performed as follows, resulting in an N of between one and six determinations for each antibody. Spots that yielded less than 25 RU of analyte binding were excluded from further analysis.
After priming with running buffer (HBS-TE, Carterra) with 0.5 mg/ml BSA (Sigma), the immobilized anti-MerTK antibodies were tested for their ability to bind to several forms of recombinant MerTK extracellular domain, including human, cynomolgus, and mouse orthologs as described above. Estimates of affinity were generated by injecting each analyte over the entire antibody array using the single channel flow cell. MerTK analytes were diluted with running buffer, in a series of six, three-fold serial dilutions starting from 1 μM for human and cynomolgus MerTK, and 600 nM for mouse MerTK. Analytes were injected for 5 minutes, and dissociation was followed for 10 minutes. After each analyte injection, antibodies were regenerated with either Protein A/G Elution Buffer (Thermo) with 1M NaCl (Teknova), or with 10 mM Glycine pH 2.5. Three buffer blanks were run between each series (one species per series). Data were processed and analyzed using NextGenKIT high-throughput kinetics analysis software (Carterra).

Test [2] concerns the target T2, endogenous murine MerTK on bone marrow-derived macrophages (mouse, UniProt Q60805 19-994).
T2 construct: whole, on cells; MFI on MerTK KO BMDM subtracted; also called BMDM WT-KO
T2 sequence (looked up): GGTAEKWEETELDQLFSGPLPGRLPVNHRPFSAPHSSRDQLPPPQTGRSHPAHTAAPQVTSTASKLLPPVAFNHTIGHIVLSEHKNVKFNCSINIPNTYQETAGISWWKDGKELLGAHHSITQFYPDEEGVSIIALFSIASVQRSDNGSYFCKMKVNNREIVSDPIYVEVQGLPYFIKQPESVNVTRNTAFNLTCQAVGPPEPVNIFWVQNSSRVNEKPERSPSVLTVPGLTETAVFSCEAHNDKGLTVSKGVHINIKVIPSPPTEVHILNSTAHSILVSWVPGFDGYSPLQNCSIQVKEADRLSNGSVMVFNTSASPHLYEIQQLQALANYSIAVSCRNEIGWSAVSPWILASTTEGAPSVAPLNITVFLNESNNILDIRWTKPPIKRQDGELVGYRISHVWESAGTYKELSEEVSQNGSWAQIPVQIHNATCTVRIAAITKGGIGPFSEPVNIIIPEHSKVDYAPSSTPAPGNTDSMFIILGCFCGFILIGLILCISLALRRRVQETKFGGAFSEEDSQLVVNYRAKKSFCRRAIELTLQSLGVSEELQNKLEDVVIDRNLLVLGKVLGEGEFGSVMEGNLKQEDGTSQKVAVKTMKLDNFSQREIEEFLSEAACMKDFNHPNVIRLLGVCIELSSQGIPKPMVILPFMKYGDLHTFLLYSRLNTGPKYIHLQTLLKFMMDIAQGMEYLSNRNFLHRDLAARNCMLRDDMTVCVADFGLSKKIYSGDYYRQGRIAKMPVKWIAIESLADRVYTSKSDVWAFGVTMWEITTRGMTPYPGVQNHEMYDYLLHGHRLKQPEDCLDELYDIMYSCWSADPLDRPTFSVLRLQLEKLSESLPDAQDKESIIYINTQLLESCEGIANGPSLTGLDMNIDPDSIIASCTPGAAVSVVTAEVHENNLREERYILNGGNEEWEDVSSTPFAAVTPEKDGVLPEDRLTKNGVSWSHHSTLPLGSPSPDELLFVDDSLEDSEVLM
Briefly: FACS, mouse BMDM, WT minus MerTK KO. The protocol: To determine whether recombinant anti-human MerTK antibodies of the present disclosure bind to human MerTK endogenously expressed on SK-MEL-5 cells and CHO cells overexpressing mouse MerTK (CHO-muMerTK OE cells), as compared to A375 and parental CHO cells as negative controls, the following experiments were performed. SK-MEL-5 cells, A375 cells, CHO-muMerTK OE cells, and CHO parental cells were plated at 100,000 cells/well. Anti-MerTK antibodies were added to the cells at 10 μg/ml. After 60 minutes on ice, cells were washed and then stained with PE-conjugated goat anti-human IgG antibody (Southern Biotech Cat #2040-09, Birmingham, AL) in the presence of Fc block solution on ice for 30 minutes, and then washed twice with cold FACS buffer (2% FBS in PBS). Mouse anti-human MerTK-PE conjugated (Biolegend, Clone 590H11G1E3) or anti-mouse MerTK-PE conjugated (ThermoFisher, Clone DS5MMER) antibodies were used as positive controls. Stained cells were acquired on a BD FACS Canto II cytometer and the mean fluorescence intensity (MFI) was calculated with FlowJo.
To confirm anti-MerTK antibody binding to endogenous murine MerTK, bone marrow-derived macrophages (BMDM) were isolated from MerTK wild type (WT) and knockout (KO) mice (The Jackson Laboratory, Cat #011122) using standard protocols. Briefly, cells isolated from the bone marrow were plated in the presence of 50 ng/ml M-CSF (R&D Systems, Cat #416-ML) for seven days to allow for differentiation into macrophages. Cell staining, FACs, and MFI were performed and calculated as described above.

The target in test [3] is T3, His tag-conjugated recombinant ProS (human, UniProt P07225 42-676, limits assumed).
T3 construct: bought; also called Protein S; ProS1 (R&D systems, Cat #9489-PS-100)
T3 sequence (looked up): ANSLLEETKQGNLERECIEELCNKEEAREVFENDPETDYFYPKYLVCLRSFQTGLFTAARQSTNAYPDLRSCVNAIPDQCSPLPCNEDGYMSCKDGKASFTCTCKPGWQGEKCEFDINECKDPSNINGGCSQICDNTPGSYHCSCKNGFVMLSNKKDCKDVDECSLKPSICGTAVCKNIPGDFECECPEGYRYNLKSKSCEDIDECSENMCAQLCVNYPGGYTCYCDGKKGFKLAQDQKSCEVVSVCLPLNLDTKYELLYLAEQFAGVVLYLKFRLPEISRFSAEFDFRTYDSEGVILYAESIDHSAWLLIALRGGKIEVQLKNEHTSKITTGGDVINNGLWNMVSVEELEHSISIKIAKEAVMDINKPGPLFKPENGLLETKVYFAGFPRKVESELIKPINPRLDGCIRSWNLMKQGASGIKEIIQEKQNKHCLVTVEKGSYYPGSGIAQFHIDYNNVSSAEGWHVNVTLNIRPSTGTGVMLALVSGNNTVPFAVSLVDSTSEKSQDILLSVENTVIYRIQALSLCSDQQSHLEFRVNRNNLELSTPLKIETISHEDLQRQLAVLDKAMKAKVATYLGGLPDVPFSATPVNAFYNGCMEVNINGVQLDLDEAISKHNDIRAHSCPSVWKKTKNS
The experiment in a line: ELISA, captured Ab, ProS-His 10 ug/ml, no MerTK. (In general: In an ELISA, binding on a coated surface is turned into a signal by an enzyme label.)

B1: MTK-232 (antibody, human IgG1, V domains shown)
VH: EVQLQESGPSLVKPSQTLSLTCSVTGDSITSGYWNWIRKFPGNKLEYMGYINYSGSTNYNPSLKSRISITRDTSKNQYYLQLNSVTTEDTATYYCARWNYLYYFDYWGQGTTLTVSS
VL: DSVMTQSHKFMSTLVGDRVSITCKASQDVGTAVAWYQQKPGQSPKVLIYWASTRHTGVPDRFTGSGSGTDFTLTITNVQSEDLADYFCHQYSTYPYTFGGGTKLEIK
Take B1: the binding result in test [1] was “no binding (tested: analyte up to 600 nM)”; in test [3] it was “binds”. The molecule also registered an MFI in test [2] of 412 MFI.
